Consider 6 molecules from patent publication US20230406950A1 (LYVGEN BIOPHARMA, published 2023).

Assay [1] addresses T1, ECD portion of human CD137 protein (mouse IgG2a Fc tag) (human, UniProt Q07011 24-186).
T1 construct: extracellular domain; also called recombinant human CD137; not shown: mouse IgG2a Fc tag
As to the kind of experiment: bridging ELISA: human CD137 ECD (mouse IgG2a Fc tag) coated, antibody titrated, then human PD-L1 ECD (His tag), HRP anti-His detection; A450-A620. As to the method: (§1) Exemplary anti-PD-L1/CD137 bi-specific antibodies were analyzed by ELISA for their simultaneous binding to recombinant human PD-L1 and human CD137. Briefly, the ECD portion of human CD137 protein (mouse IgG2a Fc tag) was diluted and coated onto an ELISA plate with a volume of 100 μL/well by incubation at 4° C. overnight. The next day, the plate was blocked with PBST-BSA buffer, then serially diluted samples of anti-PD-L1/CD137 bi-specific antibodies were pipetted into appropriate wells at 50 μL/well, and the plate was incubated for 1 h followed by Washing. Human PD-L1 ECD fragment (His tag) was added into the plate at 50 μL/well. After 1-hour incubation at room temperature, HRP-conjugated anti-His tag antibody was added into the plate at 100 μL/well and […]. The plate was incubated for 1 hour at room temperature followed by washing. TMB substrate solution was added at 100 μL/well and the color development was stopped by adding 100 uL/well Stop Solution (2N H₂SO₄). Absorbance at 450 nm and 620 nm was read by Tecan F200 Pro plate reader. GraphPad 7.0, “[Agonist] vs. response—Variable slope (four parameters)” was used to plot the binding data and calculate binding EC50 values.

Assay [2] deals with T2, Human PD-L1 ECD fragment (His tag) (human, UniProt Q9NZQ7 19-238).
T2 construct: extracellular domain; also called recombinant human PD-L1; not shown: His tag
T2 sequence (Q9NZQ7 19-238): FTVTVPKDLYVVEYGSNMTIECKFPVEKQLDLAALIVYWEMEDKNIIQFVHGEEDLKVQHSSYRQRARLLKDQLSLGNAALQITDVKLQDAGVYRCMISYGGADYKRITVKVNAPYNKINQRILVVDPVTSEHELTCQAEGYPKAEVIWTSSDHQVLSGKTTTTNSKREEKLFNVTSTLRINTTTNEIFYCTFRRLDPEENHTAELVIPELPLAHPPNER
Described as above. As to the method:
as §1

Assay [3] has as its target T3, human PD-L1 expressed on cells (human, UniProt Q9NZQ7 19-290).
T3 construct: whole, on cells; also called human PD-L1 expressed on CHO cells; Raji-PD-L1 cells
Briefly: flow cytometry (FACS), MFI, CHO cells expressing human PD-L1. As to the method: (§2) Exemplary anti-PD-1/CD137 bi-specific antibodies were analyzed by FACS for their binding properties to human PD-1 and/or human CD137 expressed on CHO cells. Briefly, cultured cells were harvested, counted and cell viability was evaluated using the Trypan Blue exclusion method. Viable cells were then adjusted to 2×10⁶ cells per mL in PBS containing 2% BSA. 100 μL of this cell suspension were further aliquoted per well into a V-bottom 96-well plate. […] After incubation for 2 hours at 4° C., cells were centrifuged (3 min, 1000× g), washed with 250 μL/well BSA-containing FACS Stain Buffer, resuspended and incubated for an additional 1 hour at 4° C. with 100 μL/well fluorochrome-conjugated anti-IgG antibody for detection of the bisepecific antibody. Cells were then washed with 250 μL/well BSA-containing FACS Stain Buffer, resuspended in 100 μL/well FACS Stain Buffer, acquired and analyzed using a FACS machine. Binding of the bispecific antibodies to human PD-1 or human CD137 expressing CHO cells were evaluated and the mean fluorescence intensity is plotted in histograms or dot plots.
Exemplary anti-PD-L1/CD137 bi-specific antibodies were analyzed by FACS for their binding properties to human PD-L1 or human CD137 expressed on CHO cells, following the procedures disclosed in Examples 1 above.
Background: A flow cytometer gives signals particle by particle.

The target in assay [4] is T4, human GITR expressed on cells (human, UniProt Q9Y5U5 26-241).
T4 construct: whole, on cells; also called TNFRSF18; CD357
T4 sequence (looked up): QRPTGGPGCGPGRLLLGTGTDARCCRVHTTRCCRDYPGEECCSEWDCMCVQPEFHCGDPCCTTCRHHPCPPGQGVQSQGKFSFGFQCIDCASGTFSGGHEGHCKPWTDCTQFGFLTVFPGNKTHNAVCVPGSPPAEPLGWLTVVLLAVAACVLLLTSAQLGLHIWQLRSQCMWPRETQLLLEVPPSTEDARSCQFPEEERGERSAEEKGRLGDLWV
As to the kind of experiment: flow cytometry (FACS), MFI, CHO cells expressing human GITR. As to the method:
FACS analysis was performed to evaluate the binding properties of exemplary anti-GITR humanized antibodies. Briefly, CHO cells over-expressing human GITR were harvested using trypsin-EDTA partial digestion followed by centrifugation at 1000 g for 3 minutes. The cells were re-suspended in cold PBS-BSA (2%) at 2×10⁶/mL and aliquoted to 100 μL/tube. The anti-GITR humanized antibodies were diluted in PBS-BSA (final concentrations were 0.01, 0.1, 1 and 10 μg/mL) and 50 μL of each was added to the CHO-GITR cells. The cell solutions were mixed and incubated at 4° C. in the dark for 2 hours. The cells were then washed with PBS-BSA twice. Secondary antibody conjugates (goat F(ab′)2 anti-human IgG—Fc (PE), pre-adsorbed, Abcam #ab98596) at 1/500 dilution and 100 μL/well was added and the cells were mixed and incubated 4° C. in dark for 1 hour. The cells were then washed twice with PBS-BSA, followed by fixation in 2% PFA/PBS, and were then subjected to FACS analysis.
[0270] (b) Agonistic Activity for GITR

The target of assay [5] is T5, human CD40 expressed on CHO cells (human, UniProt P25942 21-277).
T5 construct: whole, on cells
T5 sequence (P25942 21-277): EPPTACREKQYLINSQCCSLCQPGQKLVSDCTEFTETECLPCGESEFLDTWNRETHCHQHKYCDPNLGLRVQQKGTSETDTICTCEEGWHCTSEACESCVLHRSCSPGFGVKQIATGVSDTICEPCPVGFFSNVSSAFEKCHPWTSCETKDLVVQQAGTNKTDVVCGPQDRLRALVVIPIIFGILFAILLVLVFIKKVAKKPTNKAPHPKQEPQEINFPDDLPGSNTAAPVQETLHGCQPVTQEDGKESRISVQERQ
Briefly: FACS on CHO cells expressing human CD40 (MFI). As to the method: as §2, with “Anti-CD40/CD137” for “Exemplary anti-PD-1/CD137”, “CD40” for “PD-1”, “1000×g),” for “1000× g),”

For assay [6], the target named is T6, human CD137 expressed on cells (human, UniProt Q07011 24-255).
T6 construct: whole, on cells; also called 4-1BB; TNFRSF9
T6 sequence (Q07011 24-255): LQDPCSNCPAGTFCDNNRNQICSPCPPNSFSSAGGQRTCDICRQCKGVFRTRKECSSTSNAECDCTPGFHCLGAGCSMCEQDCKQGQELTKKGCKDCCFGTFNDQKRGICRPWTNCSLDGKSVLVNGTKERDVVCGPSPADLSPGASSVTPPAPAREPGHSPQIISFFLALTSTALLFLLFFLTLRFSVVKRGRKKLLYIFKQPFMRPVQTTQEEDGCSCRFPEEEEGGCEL
Briefly: FACS on CHO cells expressing human CD137 (MFI). As to the method:
as §2, with “Anti-CD40/CD137” for “Exemplary anti-PD-1/CD137”, “CD40” for “PD-1”, “1000×g),” for “1000× g),”

T3 sequence (Q9NZQ7 19-290): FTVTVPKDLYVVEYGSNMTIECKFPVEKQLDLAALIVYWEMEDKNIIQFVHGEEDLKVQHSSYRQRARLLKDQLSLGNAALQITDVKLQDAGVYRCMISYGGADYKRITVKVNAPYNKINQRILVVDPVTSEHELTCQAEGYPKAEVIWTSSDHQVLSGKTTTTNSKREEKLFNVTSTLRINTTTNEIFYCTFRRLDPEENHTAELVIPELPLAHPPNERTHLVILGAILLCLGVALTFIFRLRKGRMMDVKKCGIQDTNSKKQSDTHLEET

B1: Ly348 (bispecific antibody, human IgG1, kappa)
heavy: QVQLVQSGAEVKKPGASVKVSCKASGYTFTDFWMSWVRQAPGQGLEWMGQIYPNTGTTHSNEKFKGRVTMTRDTSTSTVYMELSSLRSEDTAVYYCARSYHISTTPNWFAYWGQGTLVTVSSASTKGPSVFPLAPSSKSTSGGTAALGCLVKDYFPEPVTVSWNSGALTSGVHTFPAVLQSSGLYSLSSVVTVPSSSLGTQTYICNVNHKPSNTKVDKKVEPKSCDKTHTCPPCPAPELLGPSVFLFPPKPKDTLMISRTPEVTCVVVDVSHEDPEVKFNWYVDGVEVHNAKTKPREEQYNSTYRVVSVLTVLHQDWLNGKEYKCKVSNKALPAPIEKTISKAKGQPREPQVYTLPPSREEMTKNQVSLTCLVKGFYPSDIAVEWESNGQPENNYKTTPPVLDSDGSFFLYSKLTVDKSRWQQGNVFSCSVMHEALHNHYTQKSLSLSPG
light: DIQMTQSPSSLSASVGDRVTITCKASQNVYKKLEWYQQKPGKVPKVLIYHTNILQTGVPSRFSGSGSGTDYTLTISSLQPEDVATYYCYQWNSGPTFGGGTKVEIKRTVAAPSVFIFPPSDEQLKSGTASVVCLLNNFYPREAKVQWKVDNALQSGNSQESVTEQDSKDSTYSLSSTLTLSKADYEKHKVYACEVTHQGLSSPVTKSFNRGECGGGGSGGGGSGGGGSGGGGSDIQMTQSPSSLSASVGDRVTITCRASQDIRSNLNWYQQKPGGAVKLLIYYTSRLHSGVPSRFSGSGSGTDYTLTISSLQPEDFATYFCQQSEKLPRTFGGGTKVEIRGGGGSGGGGSGGGGSGGGGSQVQLVQSGAEVKKPGASVKVSCKASGYTFAGFEMHWVRQAPGQGLEWMGAIDPKTGGTDYNQKFKDRVTMTRDTSISTAYMELSRLRSDDTAVYYCARDLGYFDVWGQGTLVTVSS
notes: Anti-PD-L1/CD137: Ly076 heavy chain; Ly076 light chain fused to Ly1630 scFv (VL-VH)
For orientation: EC50 (read off the curve) means the concentration giving half of the maximal effect. A higher EC50 (read off the curve) goes with a need for much substance. Take B1: in assay [1], the 50% effective concentration (EC50 (read off the curve)) is around 0.1 µg/mL. The binding result in assay [2] and in assay [3] was “binds” in each case.

B2: TM392 (antibody, human IgG4 S228P, kappa, V domains shown)
VH: QVQLKESGPGLVQPSETLSLTCNVSGFSLTSYNVHWVRQPPGKGLEWLGVIWSGVRTDYNSVLKSRLSIRWDSSKNQVFLKMNSLQSEDTATYYCARGTYDANYHDVMDAWGQGASVTVSS
VL: DTVLTQSPALAVSPGERVTISCRASKSVRTGMHWYQQKPGQQPKLLVYGASNLESGVPARFSGSGSGTDFTLTIDPVEADDIATYFCHQSWNHFTFGSGTKLEIKR
notes: Chimeric anti-GITR antibody; also called chimeric antibody TM392 (LYV392 with human constant regions)
As for B2, the binding result in assay [4] was “binds”.

B3: TM396 (antibody, human IgG4 S228P, kappa, V domains shown)
VH: QVQLKESGPGLVQPSETLSLTCTVSGFSLTSYNVHWVRQPPGKGLEWLGVIWSGVRTDYNSVLKPRLSISRDSSKNKVFLNMNSLQSEDTATYYCARGTYDDNYHDVMDAWGQGASVTVSS
VL: DTVLTQSPALAVSPGERVTISCRASKSVRTGMHWYQQKPGQQPKLLIYGASNLESGVPVRFSGSGSGTDFTLTIDPVEADDTATYFCQQSWNHFTFGSGTKLEIKR
notes: Chimeric anti-GITR antibody from LYV396; also called chimeric antibody TM396 (IgG4)
Take B3: in assay [4], the binding result was “binds”.

B4: Ly738 (bispecific antibody, human IgG1, kappa)
heavy: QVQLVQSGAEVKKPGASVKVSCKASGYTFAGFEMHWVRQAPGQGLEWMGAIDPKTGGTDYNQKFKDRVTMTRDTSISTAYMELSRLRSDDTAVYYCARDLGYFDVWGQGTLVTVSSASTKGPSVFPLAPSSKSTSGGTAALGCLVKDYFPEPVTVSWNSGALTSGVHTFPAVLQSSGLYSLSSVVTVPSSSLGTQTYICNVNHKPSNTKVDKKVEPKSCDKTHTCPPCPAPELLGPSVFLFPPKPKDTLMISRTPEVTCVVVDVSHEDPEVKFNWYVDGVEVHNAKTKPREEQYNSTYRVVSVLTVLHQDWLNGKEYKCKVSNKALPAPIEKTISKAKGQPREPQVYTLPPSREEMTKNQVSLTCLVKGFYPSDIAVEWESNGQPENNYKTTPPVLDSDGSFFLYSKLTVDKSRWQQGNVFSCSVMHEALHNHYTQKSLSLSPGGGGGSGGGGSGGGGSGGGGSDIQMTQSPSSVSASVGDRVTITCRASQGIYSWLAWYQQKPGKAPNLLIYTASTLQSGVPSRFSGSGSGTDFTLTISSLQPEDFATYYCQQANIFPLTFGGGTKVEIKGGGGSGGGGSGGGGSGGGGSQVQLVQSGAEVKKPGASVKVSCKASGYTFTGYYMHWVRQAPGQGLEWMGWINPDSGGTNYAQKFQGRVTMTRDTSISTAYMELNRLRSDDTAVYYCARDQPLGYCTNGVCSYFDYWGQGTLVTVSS
light: DIQMTQSPSSLSASVGDRVTITCRASQDIRSNLNWYQQKPGGAVKLLIYYTSRLHSGVPSRFSGSGSGTDYTLTISSLQPEDFATYFCQQSEKLPRTFGGGTKVEIRRTVAAPSVFIFPPSDEQLKSGTASVVCLLNNFYPREAKVQWKVDNALQSGNSQESVTEQDSKDSTYSLSSTLTLSKADYEKHKVYACEVTHQGLSSPVTKSFNRGEC
notes: Anti-CD40/CD137: Ly1630 heavy chain fused to Ly253 scFv (VL-VH); Ly1630 light chain
With B4, the “EC50 (read off the curve)” value was around 0.08 µg/mL in assay [5] and around 0.05 µg/mL in assay [6].

B5: Ly299 (bispecific antibody, human IgG1, kappa)
heavy: QVQLVQSGAEVKKPGASVKVSCKASGYTFTDFWMSWVRQAPGQGLEWMGQIYPNTGTTHSNEKFKGRVTMTRDTSTSTVYMELSSLRSEDTAVYYCARSYHISTTPNWFAYWGQGTLVTVSSASTKGPSVFPLAPSSKSTSGGTAALGCLVKDYFPEPVTVSWNSGALTSGVHTFPAVLQSSGLYSLSSVVTVPSSSLGTQTYICNVNHKPSNTKVDKKVEPKSCDKTHTCPPCPAPELLGPSVFLFPPKPKDTLMISRTPEVTCVVVDVSHEDPEVKFNWYVDGVEVHNAKTKPREEQYNSTYRVVSVLTVLHQDWLNGKEYKCKVSNKALPAPIEKTISKAKGQPREPQVYTLPPSREEMTKNQVSLTCLVKGFYPSDIAVEWESNGQPENNYKTTPPVLDSDGSFFLYSKLTVDKSRWQQGNVFSCSVMHEALHNHYTQKSLSLSPGGGGGSGGGGSGGGGSGGGGSDIQMTQSPSSLSASVGDRVTITCRASQDIRSNLNWYQQKPGGAVKLLIYYTSRLHSGVPSRFSGSGSGTDYTLTISSLQPEDFATYFCQQSEKLPRTFGGGTKVEIRGGGGSGGGGSGGGGSGGGGSQVQLVQSGAEVKKPGASVKVSCKASGYTFAGFEMHWVRQAPGQGLEWMGAIDPKTGGTDYNQKFKDRVTMTRDTSISTAYMELSRLRSDDTAVYYCARDLGYFDVWGQGTLVTVSS
light: DIQMTQSPSSLSASVGDRVTITCKASQNVYKKLEWYQQKPGKVPKVLIYHTNILQTGVPSRFSGSGSGTDYTLTISSLQPEDVATYYCYQWNSGPTFGGGTKVEIKRTVAAPSVFIFPPSDEQLKSGTASVVCLLNNFYPREAKVQWKVDNALQSGNSQESVTEQDSKDSTYSLSSTLTLSKADYEKHKVYACEVTHQGLSSPVTKSFNRGEC
notes: Anti-PD-L1/CD137: Ly076 heavy chain fused to Ly1630 scFv (VL-VH); Ly076 light chain
As to B5, the “EC50 (read off the curve)” value in assay [1] is around 0.1 µg/mL. Besides, the binding result in assay [2] and in assay [3] was “binds” each time.

B6: TM676 (antibody, human IgG1, kappa, V domains shown)
VH: QVQLQESGPGLVKPSETLSLTCTVSGFSLTSYNVHWIRQPPGKGLEWIGVIWSGVRTDYNSVLKSRVTISVDTSKNQFSLKLSSVTAADTAVYYCARGTYDANYHDVMDAWGQGTMVTVSS
VL: EIVLTQSPATLSLSPGERATLSCRASKSVRTGMHWYQQKPGQAPRLLIYGASNLESGIPARFSGSGSGTDFTLTISSLEPEDFAVYYCHQSWNHFTFGQGTKLEIKR
notes: Humanized anti-GITR antibody; also called humanized LYV392 antibody (VH-1/IgG1 mut, VL-1/kappa)
As to B6, in assay [4], the binding result was “binds”.
